Results from patent US20230203162A1 (NUMAB THERAPEUTICS, published 2023).

Columns and labels:
[1] = biological target: T1, human serum albumin (hSA, Sigma-Aldrich A3782) (human, UniProt P02768 25-609); experiment: SPR, albumin immobilized on CM5, scFv as analyte, multi-cycle, 1:1 Langmuir, pH 7.4
[2] = biological target: T2, cynomolgus monkey serum albumin (cSA, Molecular Innovations CYSA) (cynomolgus monkey); experiment: as above
[3] = biological target: T3, mouse serum albumin (mSA, Sigma-Aldrich A3559) (mouse, UniProt P07724 25-608); experiment: as above
[4] = biological target: T3, mouse serum albumin (mSA, Sigma-Aldrich …); experiment: SPR, albumin immobilized on CM5, scFv as analyte, 1:1 fit, pH 5.5; biphasic binding corrected with bulk correction
[5] = biological target: T1, human serum albumin (hSA, Sigma-Aldrich …); experiment: SPR, albumin immobilized on CM5, scFv as analyte, multi-cycle, 1:1 Langmuir, pH 5.5
[6] = biological target: T2, cynomolgus monkey serum albumin (cSA, …); experiment: as above
[7] = biological target: T3, mouse serum albumin (mSA, Sigma-Aldrich …); experiment: as above
[8] = biological target: T3, mouse serum albumin (mSA, Sigma-Aldrich …); experiment: SPR, albumin immobilized on CM5, scFv as analyte, 1:1 fit, pH 7.4; biphasic binding corrected with bulk correction

Kd [1]: 2.2 nM | koff [1]: 0.0012 s⁻¹ | kon [1]: 550000 M⁻¹ s⁻¹ | Kd [2]: 1.6 nM | koff [2]: 0.00091 s⁻¹ | kon [2]: 580000 M⁻¹ s⁻¹ | koff [3]: 0.00029 s⁻¹ | kon [3]: 32000 M⁻¹ s⁻¹ | Kd [4]: 2.5 nM | Kd [5]: 3.3 nM | koff [5]: 0.003 s⁻¹ | kon [5]: 900000 M⁻¹ s⁻¹ | Kd [6]: 2.3 nM | koff [6]: 0.0021 s⁻¹ | kon [6]: 910000 M⁻¹ s⁻¹ | koff [7]: 0.0002 s⁻¹ | kon [7]: 78000 M⁻¹ s⁻¹ | Kd [8]: 9 nM
B1: anti-hSA scFv PRO2155 (domain 19-04-A10-sc02) (scFv, V domains shown)
VH: EVQLVESGGGLVQPGGSLRLSCAASGFSLSSYAMNWVRQAPGKGLEWIGHINAGDIAYYATWAKGRFTISRDNSKNTVYLQMNSLRAEDTAVYFCARGAGGFSTGPFKLWGQGTLVTVSS
VL: AFELTQSPSSLSASVGDRVTITCQASESINSRLAWYQQKPGQPPKLLIYDASDLTSGVPSRFSGSGSGTDFTLTISSLQPEDFATYYCQGYGGSSTTTFGGGTKLTVLG
notes: Tested as scFv
